Target: Cyclin B1 (human (endogenous in 293T and HFF)), P14635
Experiment: co-IP
Conditions: remark: other sources report otherwise

Sequence of Cyclin B1 (human (endogenous in 293T and HFF)), P14635 (P14635 whole entry): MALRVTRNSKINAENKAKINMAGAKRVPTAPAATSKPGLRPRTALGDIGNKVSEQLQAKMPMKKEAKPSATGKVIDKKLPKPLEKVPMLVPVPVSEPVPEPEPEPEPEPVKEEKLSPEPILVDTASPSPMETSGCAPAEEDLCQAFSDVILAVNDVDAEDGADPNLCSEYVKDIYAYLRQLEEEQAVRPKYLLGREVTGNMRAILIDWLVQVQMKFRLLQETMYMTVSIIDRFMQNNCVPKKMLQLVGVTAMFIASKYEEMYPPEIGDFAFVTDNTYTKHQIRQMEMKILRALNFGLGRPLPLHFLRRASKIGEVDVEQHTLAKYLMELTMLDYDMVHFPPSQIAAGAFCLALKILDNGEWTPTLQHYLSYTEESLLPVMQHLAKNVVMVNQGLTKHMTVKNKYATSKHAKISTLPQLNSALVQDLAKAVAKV

Binder	pUL97 co-IP Western blot signal relative to cyclin B1 [%]
HCMV protein kinase pUL97, Flag-tagged (pUL97-Flag), P16788 1-707 (natural protein) MSSALRSRARSASLGTTTQGWDPPPLRRPSRARRRQWMREAAQAAAQAAVQAAQAAAAQVAQAHVDENEVVDLMADEAGGGVTTLTTLSSVSTTTVLGHATFSACVRSDVMRDGEKEDAASDKENLRRPVVPSTSSRGSAASGDGYHGLRCRETSAMWSFEYDRDGDVTSVRRALFTGGSDPSDSVSGVRGGRKRPLRPPLVSLARTPLCRRRVGGVDAVLEENDVELRAESQDSAVASGPGRIPQPLSGSSGEESATAVEADSTSHDDVHCTCSNDQIITTSIRGLTCDPRMFLRLTHPELCELSISYLLVYVPKEDDFCHKICYAVDMSDESYRLGQGSFGEVWPLDRYRVVKVARKHSETVLTVWMSGLIRTRAAGEQQQPPSLVGTGVHRGLLTATGCCLLHNVTVHRRFHTDMFHHDQWKLACIDSYRRAFCTLADAIKFLNHQCRVCHFDITPMNVLIDVNPHNPSEIVRAALCDYSLSEPYPDYNERCVAVFQETGTARRIPNCSHRLRECYHPAFRPMPLQKLLICDPHARFPVAGLRRYCMSELSALGNVLGFCLMRLLDRRGLDEVRMGTEALLFKHAGAACRALENGKLTHCSDACLLILAAQMSYGACLLGEHGAALVSHTLRFVEAKMSSCRVRAFRRFYHECSQTMLHEYVRKNVERLLATSDGLYLYNAFRRTTSIICEEDLDGDCRQLFPE	100
pUL97 stably expressed in transduced HFFs, P16788 1-707 (natural protein) MSSALRSRARSASLGTTTQGWDPPPLRRPSRARRRQWMREAAQAAAQAAVQAAQAAAAQVAQAHVDENEVVDLMADEAGGGVTTLTTLSSVSTTTVLGHATFSACVRSDVMRDGEKEDAASDKENLRRPVVPSTSSRGSAASGDGYHGLRCRETSAMWSFEYDRDGDVTSVRRALFTGGSDPSDSVSGVRGGRKRPLRPPLVSLARTPLCRRRVGGVDAVLEENDVELRAESQDSAVASGPGRIPQPLSGSSGEESATAVEADSTSHDDVHCTCSNDQIITTSIRGLTCDPRMFLRLTHPELCELSISYLLVYVPKEDDFCHKICYAVDMSDESYRLGQGSFGEVWPLDRYRVVKVARKHSETVLTVWMSGLIRTRAAGEQQQPPSLVGTGVHRGLLTATGCCLLHNVTVHRRFHTDMFHHDQWKLACIDSYRRAFCTLADAIKFLNHQCRVCHFDITPMNVLIDVNPHNPSEIVRAALCDYSLSEPYPDYNERCVAVFQETGTARRIPNCSHRLRECYHPAFRPMPLQKLLICDPHARFPVAGLRRYCMSELSALGNVLGFCLMRLLDRRGLDEVRMGTEALLFKHAGAACRALENGKLTHCSDACLLILAAQMSYGACLLGEHGAALVSHTLRFVEAKMSSCRVRAFRRFYHECSQTMLHEYVRKNVERLLATSDGLYLYNAFRRTTSIICEEDLDGDCRQLFPE	100
